The target in series [1] is recombinant human sRAGE (Homo sapiens, UniProt Q15109). The experiment in a line: Fluorescence polarization competition assay: displacement of fluorescent amyloid beta (1-40) from sRAGE. To be noted: read-out: EC50 for competing with fluoresceinated amyloid beta (1-40) for binding to sRAGE, unlabeled ligand, sRAGE 40 nM, fluorescent amyloid beta (1-40) 50 nM, 37° C. 1 hour, FIG. 4, mean of four measurements. Here is the method: (§1) Once dissolved, the peptide is diluted with phosphate-buffered saline (calcium-free) to a concentration of 1 mg/ml and allowed to incubate at 37° C. for 24-48 hours.
recombinant human sRAGE (Homo sapiens, UniProt Q15109), sequence (Q15109 23-339): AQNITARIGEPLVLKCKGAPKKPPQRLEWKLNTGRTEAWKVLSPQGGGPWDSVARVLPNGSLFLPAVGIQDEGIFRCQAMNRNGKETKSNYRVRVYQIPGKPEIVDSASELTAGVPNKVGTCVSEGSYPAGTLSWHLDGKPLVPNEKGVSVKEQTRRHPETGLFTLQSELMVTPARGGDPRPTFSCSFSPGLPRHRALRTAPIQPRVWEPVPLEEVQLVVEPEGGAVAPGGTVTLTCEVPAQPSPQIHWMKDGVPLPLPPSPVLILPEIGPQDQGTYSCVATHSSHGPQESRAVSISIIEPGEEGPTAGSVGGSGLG
The complex was incubated at 37° C. for 1 hour and then the milli-polarization (mP) value was read using an Envision plate reader (Perkin Ekmer). In some cases, depending on the purity of the human sRAGE, 0.1% bovine serum albumin (BSA) or 0.05% of the detergent TWEEN 20 may be added to the phospahte buffered saline to reduce background binding of the sRAGE to the assay well.
In general terms: Fluorescence polarisation rises when a labelled molecule tumbles more slowly, as on binding a larger partner.

Series [2] deals with T1, recombinant human sRAGE (human, UniProt Q15109 23-339).
T1 construct: also called soluble RAGE
T1 sequence (Q15109 23-339 limits assumed): as the sequence (Q15109 23-339) above
Nature of the series: fluorescence polarization, displacement of fluorescent amyloid beta (1-40) from sRAGE. The procedure:
as §1
The complex was incubated at 37° C. for 1 hour and then the milli-polarization (mP) value was read using an Envision plate reader (Perkin Ekmer).

Where two headings read alike, the source gives them in different places.

The text below walks through data of patent publication US20070154954A1, “Fluorescence polarization assay” (TRANSTECH PHARMA, INC., priority 2004, published 2007).

On to “s100b: unlabeled S100b, calgranulin-like RAGE ligand”, for which the EC50 in the series with recombinant human sRAGE [1] was roughly 43 nM; with recombinant human sRAGE [1] (listed as S100b), 43 nM.

B1: unlabeled S100b (ligand)
chain: MSELEKAMVALIDVFHQYSGREGDKHKLKKSELKELINNELSHFLEEIKEQEVVDKVMETLDNDGDGECDFQEFMAFVAMVTTACHEFFEHE
Regarding B1, in the series with recombinant human sRAGE [2], the EC50 came out at 43 nM.
